# In patent publication EP4763867A1 (Shanghai Mabgen Biotech Ltd., dated 2026):
# Like-named read-outs stand apart in the source and are kept apart here.
# T1: IL-2Rβ and IL-2Rγ on M07e cells (moderate-avidity IL-2 receptor IL-2Rβγ) (human, UniProt P14784 27-551; P31785 23-369)
# T1 sequence (looked up) 1: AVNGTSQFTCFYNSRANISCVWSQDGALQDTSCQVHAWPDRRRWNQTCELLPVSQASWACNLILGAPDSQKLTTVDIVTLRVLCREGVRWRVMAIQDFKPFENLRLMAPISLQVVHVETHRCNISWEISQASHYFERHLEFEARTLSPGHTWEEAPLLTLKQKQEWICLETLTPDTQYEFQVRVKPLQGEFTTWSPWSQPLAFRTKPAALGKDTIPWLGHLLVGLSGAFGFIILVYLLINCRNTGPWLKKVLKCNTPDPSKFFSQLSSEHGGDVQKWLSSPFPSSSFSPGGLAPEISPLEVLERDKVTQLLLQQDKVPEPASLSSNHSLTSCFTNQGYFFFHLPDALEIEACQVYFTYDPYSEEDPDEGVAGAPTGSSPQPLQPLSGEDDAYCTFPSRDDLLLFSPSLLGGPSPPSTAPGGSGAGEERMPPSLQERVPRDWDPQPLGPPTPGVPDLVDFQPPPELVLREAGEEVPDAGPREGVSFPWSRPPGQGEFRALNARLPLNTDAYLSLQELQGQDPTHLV
# T1 sequence (looked up) 2: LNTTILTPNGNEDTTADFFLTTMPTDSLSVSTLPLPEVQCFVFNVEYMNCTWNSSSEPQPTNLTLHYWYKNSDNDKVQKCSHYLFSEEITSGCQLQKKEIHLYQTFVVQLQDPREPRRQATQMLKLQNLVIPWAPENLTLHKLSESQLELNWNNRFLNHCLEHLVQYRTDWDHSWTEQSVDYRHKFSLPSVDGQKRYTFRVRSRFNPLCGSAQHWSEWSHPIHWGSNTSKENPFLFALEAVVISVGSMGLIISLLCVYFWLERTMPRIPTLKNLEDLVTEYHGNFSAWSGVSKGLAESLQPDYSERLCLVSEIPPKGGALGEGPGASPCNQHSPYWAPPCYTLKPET
# What was measured:
# [1] = target: T2, human PD-1 (SEQ ID NO: 1) expressed on cells (human, UniProt Q15116 25-288); assay: cell-based or functional assay
# T2 sequence (Q15116 25-288 limits assumed): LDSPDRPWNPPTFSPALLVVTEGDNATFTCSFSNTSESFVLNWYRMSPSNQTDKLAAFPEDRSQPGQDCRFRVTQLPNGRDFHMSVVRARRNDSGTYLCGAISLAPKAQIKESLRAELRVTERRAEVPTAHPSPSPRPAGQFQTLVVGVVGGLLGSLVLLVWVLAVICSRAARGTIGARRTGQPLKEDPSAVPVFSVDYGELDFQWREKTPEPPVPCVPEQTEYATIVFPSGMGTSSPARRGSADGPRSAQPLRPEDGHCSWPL
# [2] = target: T3, Biotinylated human PD-1 (AcroBiosystems, PD1-H82E4) (human, UniProt Q15116 25-167, biotinylated (site not stated)); assay: screening of a VHH yeast display library with biotinylated antigens
# T3 construct: Screening antigen of the yeast display library; also called human PD-1 antigen (screening antigen)
# T3 sequence (Q15116 25-167 limits assumed): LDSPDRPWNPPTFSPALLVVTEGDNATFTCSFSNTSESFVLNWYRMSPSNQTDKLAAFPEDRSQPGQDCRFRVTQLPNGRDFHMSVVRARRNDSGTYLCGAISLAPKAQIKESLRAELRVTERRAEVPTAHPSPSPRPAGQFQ
# [3] = target: T1, IL-2Rβ and IL-2Rγ on M07e cells …; assay: cell-based or functional assay
# [4] = target: T2, human PD-1 (SEQ ID NO: 1) expressed on …; assay: cell-based or functional assay; remark: listed apart in the source
binder,measurement,setting,value
"A17_hIgG4 (antibody, V domains shown) VH: EVQVVESGGGLVQPGGSLRLSCVASGLTFSDYSMSWYRQAPGKERELVAIISGSGVIAHYVDSVKGRFTISRDNAKSTVYLQMVSLKPEDRGVYYCRAVSDWDDYWGQGTQVTVSS","activity IC50, PD-1/PD-L1 NFAT reporter gene system",[1],1.2 nM
"A17 (VHH, also called Variable region of A17) VHH: EVQVVESGGGLVQPGGSLRLSCVASGLTFSDYSMSWYRQAPGKERELVAIISGSGVIAHYVDSVKGRFTISRDNAKSTVYLQMVSLKPEDRGVYYCRAVSDWDDYWGQGTQVTVSS",binding result,[2],binds
"PEGylated IL-2 mutant (PEG-IL-2v) (ligand, PEGylated (site and PEG not stated)) APASSSTKKTQLQLEHLLLDLQMILQGISNYKNPKLTRMLTAKFYMPKKATELKHLQCLEEELKPLEEVLQGAQSKNFHLRPRDLISNINVIVLELKGSETTFMCEYADETATIVEFLNRWITFAQSIISTLT","M07e proliferation, EC50",[3],20.9 nM
same,"M07e-hPD1 proliferation, EC50",[3],13.3 nM
"A17m0902_hIgG4 (antibody, V domains shown) VH: EVQLVESGGGLVQPGGSLRLSCAASGLTFSDYSMSWYRQAPGKGRELVAIISGSGVITHYVDSVKGRFTISRDNAKNTLYLQMRSLRAEDTAVYYCRAVSDWEDYWGQGTQVTVSS","activity IC50, PD-1/PD-L1 NFAT reporter gene system",[4],0.435 nM
